Our source for the Kd values is doi:10.1101/2023.07.12.548668.

For this series, the target named is XLF (UniProt Q9H9Q4). Briefly: NMR titration (2D lineshape, TITAN). As to conditions: NMR buffer (composition, salt and pH not in material); 800 MHz, 298 K stated for relaxation measurements; EMSA buffer not given. On the technique in general: In EMSA bound probe runs differently from free probe, usually more slowly.
Chain of XLF (Q9H9Q4 whole entry): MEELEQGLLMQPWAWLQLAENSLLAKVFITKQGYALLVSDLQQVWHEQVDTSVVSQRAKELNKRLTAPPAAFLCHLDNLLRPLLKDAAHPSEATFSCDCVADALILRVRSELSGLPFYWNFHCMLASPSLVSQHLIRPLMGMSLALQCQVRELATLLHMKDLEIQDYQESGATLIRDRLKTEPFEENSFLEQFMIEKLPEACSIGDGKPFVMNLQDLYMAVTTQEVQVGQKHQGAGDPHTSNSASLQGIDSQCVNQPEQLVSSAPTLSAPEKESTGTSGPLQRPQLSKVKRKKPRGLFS
As for 18mer DNA, the Kd (usually a measure of binding affinity in units of concentration) came out at 33.7 µM. For the substance 21mer DNA, the Kd came to 16.2 µM. For 15mer DNA, the dissociation constant Kd amounted to 141 µM.
